Assay results taken from article PMC7954794, “Protein context shapes the specificity of SH3 domain-mediated interactions in vivo” (Nature Communications, 2021).

Assays:
Assay type in all cases: cell-based, Saccharomyces cerevisiae
Hua2 = assay: Deep mutational scanning of Abp1 SH3, Abp1-Hua2 DHFR-PCA (DMS score); conditions: for hua2sc: Frequencies scaled to the synonymous mutation distribution (DMS score) / HUA2_MTX2: frequencies normalized to the reference condition: Abp1-Hua2 DHFR-PCA, MTX2; for HUA2_MTX2: frequencies normalized to the reference condition: single amino acid variants of Abp1 SH3; for quadrant (effect of mutation on Hua2 and Lsb3 interactions): classification from both Hua2 and Lsb3 DMS scores, Dest. both / Dest. Hua2 / Dest. Lsb3 / Neutral
Procedure: (§1) Single site mutation libraries were generated by a PCR-based saturation mutagenesis method[50] as described below. The mutagenesis was carried out on the pUC19 plasmid containing the SH3 domain sequence of ABP1 flanked by its homology arms subsequently used in the CRISPR mediated genomic re-integration. We used oligos containing degenerate nucleotides (NNN) to carry out the mutagenesis at each codon of the domain sequence. In the first step of the two-step PCR procedure (short PCR step), an amplicon was generated with an oligo containing the degenerate codon which is positioned within the domain sequence, and another oligo lying outside Abp1 sequence in the plasmid. Short PCR step was carried out with the following settings: 5 min at 95 °C, 35 cycles: 20 s at 98 °C, 15 s at 60 °C, 30 s at 72 °C, and a final extension of 1 min at 72 °C. The amplicon generated in this step was used as a mega primer in the second step (long PCR step) to amplify the whole plasmid. Long PCR step was carried out with the following settings: 5 min at 95 °C, 22 cycles: 20 s at 98 °C, 15 s at 68 °C, 3 min 30 s at 72 °C, and a final extension of 5 min at 72 °C. The long PCR product was digested for 2 h at 37 °C with DpnI. The digestion product was then transformed into E. coli MC1061 competent cells. In order to obtain most of the 64 possible codons, we recovered ~1000 colonies from each plate to retrieve the plasmid single mutant libraries. Saturation mutagenesis was carried out in a codon-position-wise manner. Mutants at each position were stored separately. Library quality control was assessed by amplifying the purified plasmid DNA preparations by PCR followed by Illumina sequencing as described below. The genomic insertion of the mutant libraries (one library per amino acid position) was performed by targeting the stuffer sequence in the ABP1 SH3-deleted strain as described in the strain construction section. ABP1 SH3-deleted yeast competent cells were co-transformed with pCAS containing the stuffer-specific gRNA and PCR amplified ABP1 SH3 single position mutated libraries from the pUC19 preparations. As for the library generation, ~1000 colonies from each plate were retrieved. Glycerol stocks of yeast cells were kept for each position (58 different stocks corresponding to the 58 amino acid positions of Abp1 SH3). The stocks were also validated by Illumina sequencing (see below).
(§2) Liquid DHFR-PCA experiments were performed following the generation of the ABP1 SH3 single position mutated yeast strains and were performed in biological independent duplicates. An overnight culture was started in YPD + NAT by adding the same number of cells from each yeast mutant strain (master pool). Then, the master pool and Hua2-DHFR F[3] or Lsb3-DHFR F[3] preys strains were mixed in YPD (2:1) for mating and incubated for 8 h at 30 °C. Diploid cells were selected the first time by transferring the mixture in a YPD + NAT + HPH (OD 0.5) culture for 16 h at 30 °C. The next day, the first diploid selection was transferred in SC complete pH 6.0 + NAT + HPH at 0.5 OD and the culture was grown for 24 h at 30 °C. The validation of the yeast mutant libraries was done the next day with a fraction of the diploid cells (first DHFR-PCA experiment time point without PCA selection, reference condition S2) by amplifying ABP1 SH3 genomic sequence followed by Illumina sequencing as described in the section below. Following the selection, diploid cells OD was read using a TECAN Infinite F200 Pro, and dilutions to 0.1 OD in PCA selection media without agar in a 50 mL tube was done. Tubes were incubated at 30 °C for 72 h (second-time point of the DHFR-PCA experiment, first PCA selection). A fraction of the cells (5U OD) was collected for Illumina sequencing. The cells from the first PCA step were grown for a second PCA selection step using the same procedures. […]

Lsb3 = assay: Deep mutational scanning of Abp1 SH3, Abp1-Lsb3 DHFR-PCA (DMS score); conditions: Abp1-Lsb3 DHFR-PCA, MTX2; for LSB3_MTX2: frequencies normalized to the reference condition: single amino acid variants of Abp1 SH3
Procedure: as §1, §2

[1] = tested on: 575 putative partners (preys) of 22 WT SH3-containing proteins; assay: DHFR-PCA on solid medium, WT and SH3-deleted baits (Fig. 1B); design: key to Score: 0: SH3-independent; 1: SH3-dependent PPIs; 2: SH3-inhibited PPIs; conditions: for medrep (log2 median colony size normalized to plate background, PCA score): label = prey; for Ratio (SH3-deleted/WT medrep): only significant differences shown, PPIs completely lost have a ratio of 0.1, gained PPIs 2.5
Text: To assess the requirement of SH3 domains for PPIs in vivo, we first measured binary interactions between 22 WT SH3-containing proteins (Supplementary Fig. 1A) as baits and 575 putative partners from their interconnected signaling networks using the dihydrofolate reductase protein–fragment complementation assay (DHFR-PCA) in the budding yeast Saccharomyces cerevisiae. About 33% (202/607) of the PPIs detected were described before, mostly by direct methods (Supplementary Fig. 1B, C)[11]. We repeated the experiments with baits in which the SH3s were individually replaced with a flexible linker by genome editing (SH3 domain deletion/stuffing, Fig. 1A). The stuffer DNA sequence ([…]) codes for a small flexible poly-Gly with Ser peptide ([…]) that is inspired by previous experiments[12],[13]. About a third of the SH3-containing protein interactome is qualitatively or quantitatively SH3-dependent (171 PPIs out of 607, Fig. 1B and Supplementary Fig. 1B, C). We validated the vast majority of the quantitative changes in low-throughput experiments and excluded that this is simply due to changes in protein abundance in most cases (Supplementary Fig. 1D–G). SH3-binding motifs[14] are more frequent in the SH3-dependent PPI partners when compared to sequences from random proteins, SH3-independent PPI partners or PPI partners that are stronger or gained following SH3 deletions (p values = 1.5 × 10^−17, 0.0038 and 2.1 × 10^−08, respectively; Mann–Whitney test, one-tailed, Fig. 1C). The changes we measure are therefore enriched for PPIs that depend on the direct interactions of the domains with the PPI partners.
The complete list of strains, primers, and gRNAs used in this study can be found in Supplementary Tables 1–3. All constructed yeast strains were validated by polymerase chain reaction (PCR) and confirmed by Sanger sequencing of the locus of interest. Bait strains for the DHFR-PCA experiments were constructed as follows. The genes of interest were fused at their genomic 3′ end by replacing the stop codon with a linker ([…]), the DHFR F[1,2] followed by a smaller linker (GGGGS), a 1× FLAG tag ([…]) and the NATMX4 resistance cassette via homologous recombination (all amplified from pAG25-DHFR[1,2]-linker-FLAG). The set of 615 prey strains (DHFR F[3] fusions in the BY4742 background) were retrieved from the Yeast Protein Interactome Collection[43] with the exception of 73 that were reconstructed (Supplementary Tables 1 and 2). Knockout strains were taken from the yeast knockout collection except for ABP1, BEM1, BZZ1, and SLA1, which were reconstructed by replacing the ORFs with the NATMX4 resistance cassette by homologous recombination in the BY4741 background.
Yeast SH3 domain genomic sequences were replaced by CRISPR–Cas9 genome editing. Each SH3 domain (as defined by the SMART database V8.0 except for Ysc84 SH3 (as defined by PROSITE), see Source Data for all SH3 sequences and Supplementary Table 1 for primers used) was specifically targeted by one gRNA[46]. Yeast competent cells were co-transformed with a pCAS plasmid (Addgene plasmid 60847[47]) expressing both the gRNA of interest and Streptococcus pyogenes Cas9[46] and a donor DNA sequence (stuffer) with 60 bp homology arms surrounding the SH3 DNA sequence. The Stuffer DNA was either PCR amplified or digested from a plasmid. The stuffer DNA sequence ([…]) codes for a small flexible linker ([…]) inspired by protein linkers used in structural biology[12],[13]. This type of linker is frequently used for fusing proteins without affecting the structure of the linked proteins.
The overall DHFR-PCA pipeline is based on Tarassov et al.[43] and the procedures have also been published as a visualized protocol. The screens were performed with robotically manipulated pin tools (BM5-SC1, S&P Robotics Inc.). First, the preys were cherry-picked from 96-well plates to omnitrays in a 384 format on YPD + HPH solid media. […]

ABP1 = assay: DHFR-PCA on solid medium, bait ABP1 (Fig. 1B); conditions: bait ABP1, label = prey; for medrep (log2 median colony size normalized to plate background, PCA score): 2-4 replicates
Text: Supplement 41467_2021_21873_MOESM8_ESM.xlsx, sheet "Fig1B" | column: medsize; medrep; Ratio; Score

[2] = bait SLA1-2, DHFR-PCA, Replicates 4 (2 for YCR009C, YDR388W)
[3] = bait SLA1-3, DHFR-PCA, Replicates 4 (2 for YCR009C, YDR388W, YIL033C)

B1: ABP1 L48L (protein, UniProt P15891 2-592, looked up)
Actin-binding protein: ALEPIDYTTHSREIDAEYLKIVRGSDPDTTWLIISPNAKKEYEPESTGSSFHDFLQLFDETKVQYGLARVSPPGSDVEKIIIIGWCPDSAPLKTRASFAANFAAVANNLFKGYHVQVTARDEDDLDENELLMKISNAAGARYSIQTSSKQQGKASTPPVKKSFTPSKSPAPVSKKEPVKTPSPAPAAKISSRVNDNNDDDDWNEPELKERDFDQAPLKPNQSSYKPIGKIDLQKVIAEEKAKEDPRLVQKPTAAGSKIDPSSDIANLKNESKLKRDSEFNSFLGTTKPPSMTESSLKNDDDKVIKGFRNEKSPAQLWAERKAKQNSGNAETKAEAPKPEVPEDEPEGEPDVKDLKSKFEGLAASEKEEEEMENKFAPPPKKSEPTIISPKPFSKPQEPVKAEEAEQPKTDYKKIGNPLPGMHIEADNEEEPEENDDDWDDDEDEAAQPPLPSRNVASGAPVQKEEPEQEEIAPSLPSRNSIPAPKQEEAPEQAPEEEIEEEAEEAAPQLPSRSSAAPPPPPRRATPEKKPKENPWATAEYDYDAAEDNELTFVENDKIINIEFVDDDWWLGELEKDGSKGLFPSNYVSLGN
modifications: synonymous codon change L48L
Hua2
  hua2sc: Frequencies scaled to the synonymous mutation distribution (DMS score): -0.5549
  HUA2_MTX2: frequencies normalized to the reference condition: 1.058
  quadrant (effect of mutation on Hua2 and Lsb3 interactions): Neutral
Lsb3
  lsb3sc: Frequencies scaled to the synonymous mutation distribution (DMS score): -0.4967
  LSB3_MTX2: frequencies normalized to the reference condition: 1.0036

B2: ABP1 F49F (protein, UniProt P15891 2-592, looked up)
Actin-binding protein: B1 Actin-binding protein
modifications: synonymous F49F
Hua2
  hua2sc: Frequencies scaled to the synonymous mutation distribution (DMS score): 0.1177
  HUA2_MTX2: frequencies normalized to the reference condition: 1.73
  quadrant (effect of mutation on Hua2 and Lsb3 interactions): Neutral
Lsb3
  lsb3sc: Frequencies scaled to the synonymous mutation distribution (DMS score): -0.3759
  LSB3_MTX2: frequencies normalized to the reference condition: 1.124

B3: ABP1 P50P (protein, UniProt P15891 2-592, looked up)
Actin-binding protein: B1 Actin-binding protein
modifications: synonymous codon change P50P
Hua2
  hua2sc: Frequencies scaled to the synonymous mutation distribution (DMS score): -0.6569
  HUA2_MTX2: frequencies normalized to the reference condition: 0.9559
  quadrant (effect of mutation on Hua2 and Lsb3 interactions): Neutral
Lsb3
  lsb3sc: Frequencies scaled to the synonymous mutation distribution (DMS score): -0.6263
  LSB3_MTX2: frequencies normalized to the reference condition: 0.874

B4: YCR009C (protein, UniProt P25343 1-265, looked up)
Reduced viability upon …: MSWEGFKKAINRAGHSVIIKNVDKTIDKEYDMEERRYKVLQRAGEALQKEAKGFLDSLRAVTASQTTIAEVISNLYDDSKYVAGGGYNVGNYYLQCVQDFDSETVKQLDGPLRETVLDPITKFSTYFKEIEEAIKKRDHKKQDFDAAKAKVRRLVDKPAKDASKLPRAEKELSLAKDIFENLNNQLKTELPQLVSLRVPYFDPSFEALIKIQLRFCTDGYTRLAQIQQYLDQQSRDDYANGLLDTKIEELLGQMTSLDICALGIK
[1]; [2]
  medrep (log2 median colony size normalized to plate background, PCA score): 2.15
[1]; bait SLA1-2, label = prey
  Score: 1
  Ratio (SH3-deleted/WT medrep): 0.1
[1]; [3]
  medrep (log2 median colony size normalized to plate background, PCA score): 2.15
[1]; bait SLA1-3, label = prey
  Score: 0
ABP1
  medrep (log2 median colony size normalized to plate background, PCA score): 4.682

B5: YFR004W (protein, UniProt P43588 1-306, looked up)
Ubiquitin carboxyl-terminal …: MERLQRLMMNSKVGSADTGRDDTKETVYISSIALLKMLKHGRAGVPMEVMGLMLGEFVDDYTVNVVDVFAMPQSGTGVSVEAVDDVFQAKMMDMLKQTGRDQMVVGWYHSHPGFGCWLSSVDVNTQKSFEQLNSRAVAVVVDPIQSVKGKVVIDAFRLIDTGALINNLEPRQTTSNTGLLNKANIQALIHGLNRHYYSLNIDYHKTAKETKMLMNLHKEQWQSGLKMYDYEEKEESNLAATKSMVKIAEQYSKRIEEEKELTEEELKTRYVGRQDPKKHLSETADETLENNIVSVLTAGVNSVAIK
[1]; [2]
  medrep (log2 median colony size normalized to plate background, PCA score): 2.485
[1]; bait SLA1-2, label = prey
  Score: 1
  Ratio (SH3-deleted/WT medrep): 0.1
[1]; [3]
  medrep (log2 median colony size normalized to plate background, PCA score): 2.485
[1]; bait SLA1-3, label = prey
  Score: 0
ABP1
  medrep (log2 median colony size normalized to plate background, PCA score): 3.9898
ABP1; only significant differences showed, PPIs completely lost have a ratio of 0.1 and the gained PPIs 2.5
  Ratio (SH3-deleted/WT medrep): 1.738
